Reference: US20160031998A1 (CSL, published 2016)

T1: human G-CSFR expressed on cells (Homo sapiens, UniProt Q99062 25-836)
T1 sequence: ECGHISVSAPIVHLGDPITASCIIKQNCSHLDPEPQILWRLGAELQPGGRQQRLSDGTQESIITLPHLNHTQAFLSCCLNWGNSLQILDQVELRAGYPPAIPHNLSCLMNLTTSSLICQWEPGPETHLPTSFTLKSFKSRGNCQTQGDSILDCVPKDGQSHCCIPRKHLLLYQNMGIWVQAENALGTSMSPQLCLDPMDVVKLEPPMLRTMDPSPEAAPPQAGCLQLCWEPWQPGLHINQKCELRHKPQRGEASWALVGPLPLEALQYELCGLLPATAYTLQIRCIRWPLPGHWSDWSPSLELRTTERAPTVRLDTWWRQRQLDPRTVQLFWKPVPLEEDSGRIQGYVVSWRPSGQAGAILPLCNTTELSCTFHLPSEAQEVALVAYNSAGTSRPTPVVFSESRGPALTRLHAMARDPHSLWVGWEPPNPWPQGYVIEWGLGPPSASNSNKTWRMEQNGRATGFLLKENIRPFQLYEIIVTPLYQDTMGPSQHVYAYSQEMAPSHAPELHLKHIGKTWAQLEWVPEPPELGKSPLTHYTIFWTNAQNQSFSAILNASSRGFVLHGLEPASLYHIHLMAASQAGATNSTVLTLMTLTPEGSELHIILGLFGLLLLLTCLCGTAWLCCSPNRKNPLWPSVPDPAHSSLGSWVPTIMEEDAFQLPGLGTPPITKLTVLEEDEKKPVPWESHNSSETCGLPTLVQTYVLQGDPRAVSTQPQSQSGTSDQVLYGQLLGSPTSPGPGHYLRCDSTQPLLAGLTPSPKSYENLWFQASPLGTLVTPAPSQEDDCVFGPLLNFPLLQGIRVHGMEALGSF

T2: soluble hG-CSFR: amino acids 25-335 of Homo sapiens G-CSFR with mutations C78A, C163S and C228S and a … (Homo sapiens, UniProt Q99062 25-335)
T2 chain: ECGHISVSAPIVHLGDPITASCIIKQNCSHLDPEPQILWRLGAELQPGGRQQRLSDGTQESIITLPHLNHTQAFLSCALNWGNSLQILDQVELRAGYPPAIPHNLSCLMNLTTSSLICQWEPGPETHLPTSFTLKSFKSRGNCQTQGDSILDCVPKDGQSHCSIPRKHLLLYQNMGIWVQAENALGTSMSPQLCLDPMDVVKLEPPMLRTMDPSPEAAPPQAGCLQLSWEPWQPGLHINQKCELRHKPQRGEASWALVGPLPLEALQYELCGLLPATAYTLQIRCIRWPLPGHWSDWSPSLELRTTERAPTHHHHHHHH


Key:
[1] = target: T1, human G-CSFR expressed on cells; experiment: cell-based or functional assay
[2] = target: T2, soluble hG-CSFR: amino acids 25-335 of …; experiment: SPR (Biacore), mAb captured by anti-human IgG, soluble hG-CSFR injected
Method: Soluble hG-CSFR was injected for 5 minutes and dissociation was monitored for 30 minutes. Responses from a reference flow cell (in which mAb was not captured, but otherwise treated identically), were subtracted. The responses from a blank injection were then subtracted from the resultant sensorgrams.
The final corrected responses were fitted using non-linear regression to a model describing 1:1 kinetics, including a term for mass transport limitation. The Rmax value was fitted locally, to account for slight deviations in the level of mAb captured. Association rate (ka), dissociation rate (kd) and equilibrium dissociation constant (KD) were determined.

IC50 (nM), inhibition of G-CSF-mediated proliferation of BaF3 cells [1] [nM]	Kd [2] [nM]	Binder
0.31	0.0613	C1.2G-79 (antibody, human IgG4, V domains shown, HCDR3 wt (VH of C1.2G); also called antibody 79) VH: EVQLLESGGGLVQPGGSLRLSCAASGFTFSLYWMGWVRQAPGKGLEWVSSISSSGGVTPYADSVKGRFTISRDNSKNTLYLQMNSLRAEDTAVYYCAKLGELGWFDPWGQGTLVTVSS VL: DIQMTQSPSSLSASVGDRVTITCRASQGISSYLNWYQQKPGKAPKLLIYYASNLQNGVPSRFSGSGSGTDFTLTISSLQPEDFATYYCQVSWEYPLTFGGGTKVEIK
0.34	0.144	C1.2G-989 (antibody, human IgG4, V domains shown, also called antibody 989) VH: EVQLLESGGGLVQPGGSLRLSCAASGFTFSLYWMGWVRQAPGKGLEWVSSISSSGGVTPYADSVKGRFTISRDNSKNTLYLQMNSLRAEDTAVYYCAKLGELGQYMFWGQGTLVTVSS VL: DIQMTQSPSSLSASVGDRVTITCRASQGISSYLNWYQQKPGKAPKLLIYYASNLQNGVPSRFSGSGSGTDFTLTISSLQPEDFATYYCQQSFYYPFYFGGGTKVEIK
0.5	0.11	C1.2G-54 (antibody, human IgG4, V domains shown, also called antibody 54) VH: EVQLLESGGGLVQPGGSLRLSCAASGFTFSLYWMGWVRQAPGKGLEWVSSISSSGGVTPYADSVKGRFTISRDNSKNTLYLQMNSLRAEDTAVYYCAKLGELGMFLEWGQGTLVTVSS VL: DIQMTQSPSSLSASVGDRVTITCRASQGISSYLNWYQQKPGKAPKLLIYYASNLQNGVPSRFSGSGSGTDFTLTISSLQPEDFATYYCQQSMWMPMGFGGGTKVEIK
0.29	0.134	C1.2G-967 (antibody, human IgG4, V domains shown, also called antibody 967) VH: EVQLLESGGGLVQPGGSLRLSCAASGFTFSLYWMGWVRQAPGKGLEWVSSISSSGGVTPYADSVKGRFTISRDNSKNTLYLQMNSLRAEDTAVYYCAKLGELGMYDLWGQGTLVTVSS VL: DIQMTQSPSSLSASVGDRVTITCRASQGISSYLNWYQQKPGKAPKLLIYYASNLQNGVPSRFSGSGSGTDFTLTISSLQPEDFATYYCQQSWAYGLSFGGGTKVEIK
0.18	0.167	C1.2G-1002 (antibody, human IgG4, V domains shown, also called antibody 1002) VH: EVQLLESGGGLVQPGGSLRLSCAASGFTFSLYWMGWVRQAPGKGLEWVSSISSSGGVTPYADSVKGRFTISRDNSKNTLYLQMNSLRAEDTAVYYCAKLGELGMYMNWGQGTLVTVSS VL: DIQMTQSPSSLSASVGDRVTITCRASQGISSYLNWYQQKPGKAPKLLIYYASNLQNGVPSRFSGSGSGTDFTLTISSLQPEDFATYYCQQSWTYGQTFGGGTKVEIK
0.41	0.181	C1.2G-969 (antibody, human IgG4, V domains shown, also called antibody 969) VH: EVQLLESGGGLVQPGGSLRLSCAASGFTFSLYWMGWVRQAPGKGLEWVSSISSSGGVTPYADSVKGRFTISRDNSKNTLYLQMNSLRAEDTAVYYCAKLGELGQYQFWGQGTLVTVSS VL: DIQMTQSPSSLSASVGDRVTITCRASQGISSYLNWYQQKPGKAPKLLIYYASNLQNGVPSRFSGSGSGTDFTLTISSLQPEDFATYYCQQSFQYAQHFGGGTKVEIK
0.34	0.182	C1.2G-1000 (antibody, human IgG4, V domains shown, also called antibody 1000) VH: EVQLLESGGGLVQPGGSLRLSCAASGFTFSLYWMGWVRQAPGKGLEWVSSISSSGGVTPYADSVKGRFTISRDNSKNTLYLQMNSLRAEDTAVYYCAKLGELGQMMYWGQGTLVTVSS VL: DIQMTQSPSSLSASVGDRVTITCRASQGISSYLNWYQQKPGKAPKLLIYYASNLQNGVPSRFSGSGSGTDFTLTISSLQPEDFATYYCQQSWMYAHMFGGGTKVEIK
0.28	0.0911	C1.2G-986 (antibody, human IgG4, V domains shown, also called antibody 986) VH: EVQLLESGGGLVQPGGSLRLSCAASGFTFSLYWMGWVRQAPGKGLEWVSSISSSGGVTPYADSVKGRFTISRDNSKNTLYLQMNSLRAEDTAVYYCAKLGELGFFQEWGQGTLVTVSS VL: DIQMTQSPSSLSASVGDRVTITCRASQGISSYLNWYQQKPGKAPKLLIYYASNLQNGVPSRFSGSGSGTDFTLTISSLQPEDFATYYCQQSYAYPQQFGGGTKVEIK
0.88	0.0446	C1.2G-987 (antibody, human IgG4, V domains shown, also called antibody 987) VH: EVQLLESGGGLVQPGGSLRLSCAASGFTFSLYWMGWVRQAPGKGLEWVSSISSSGGVTPYADSVKGRFTISRDNSKNTLYLQMNSLRAEDTAVYYCAKLGELGQSSAWGQGTLVTVSS VL: DIQMTQSPSSLSASVGDRVTITCRASQGISSYLNWYQQKPGKAPKLLIYYASNLQNGVPSRFSGSGSGTDFTLTISSLQPEDFATYYCQQSIQYPQMFGGGTKVEIK
0.26	0.0682	C1.2G-1003 (antibody, human IgG4, V domains shown, also called antibody 1003) VH: EVQLLESGGGLVQPGGSLRLSCAASGFTFSLYWMGWVRQAPGKGLEWVSSISSSGGVTPYADSVKGRFTISRDNSKNTLYLQMNSLRAEDTAVYYCAKLGELGSGSTWGQGTLVTVSS VL: DIQMTQSPSSLSASVGDRVTITCRASQGISSYLNWYQQKPGKAPKLLIYYASNLQNGVPSRFSGSGSGTDFTLTISSLQPEDFATYYCQQSWHYPLTFGGGTKVEIK
0.49	0.17	C1.2G-994 (antibody, human IgG4, V domains shown, also called antibody 994) VH: EVQLLESGGGLVQPGGSLRLSCAASGFTFSLYWMGWVRQAPGKGLEWVSSISSSGGVTPYADSVKGRFTISRDNSKNTLYLQMNSLRAEDTAVYYCAKLGELGQFMDWGQGTLVTVSS VL: DIQMTQSPSSLSASVGDRVTITCRASQGISSYLNWYQQKPGKAPKLLIYYASNLQNGVPSRFSGSGSGTDFTLTISSLQPEDFATYYCQQSLEYPQMFGGGTKVEIK
0.21	0.0906	C1.2G-97 (antibody, human IgG4, V domains shown, HCDR3 wt (VH of C1.2G); also called antibody 97) VH: EVQLLESGGGLVQPGGSLRLSCAASGFTFSLYWMGWVRQAPGKGLEWVSSISSSGGVTPYADSVKGRFTISRDNSKNTLYLQMNSLRAEDTAVYYCAKLGELGWFDPWGQGTLVTVSS VL: DIQMTQSPSSLSASVGDRVTITCRASQGISSYLNWYQQKPGKAPKLLIYYASNLQNGVPSRFSGSGSGTDFTLTISSLQPEDFATYYCQQSFMYPLYFGGGTKVEIK
0.26	0.0578	C1.2G-95 (antibody, human IgG4, V domains shown, HCDR3 wt (VH of C1.2G); also called antibody 95) VH: EVQLLESGGGLVQPGGSLRLSCAASGFTFSLYWMGWVRQAPGKGLEWVSSISSSGGVTPYADSVKGRFTISRDNSKNTLYLQMNSLRAEDTAVYYCAKLGELGWFDPWGQGTLVTVSS VL: DIQMTQSPSSLSASVGDRVTITCRASQGISSYLNWYQQKPGKAPKLLIYYASNLQNGVPSRFSGSGSGTDFTLTISSLQPEDFATYYCQQSWEYPLVFGGGTKVEIK
0.26	0.111	C1.2G-802 (antibody, human IgG4, V domains shown, HCDR3 wt (VH of C1.2G); also called antibody 802) VH: EVQLLESGGGLVQPGGSLRLSCAASGFTFSLYWMGWVRQAPGKGLEWVSSISSSGGVTPYADSVKGRFTISRDNSKNTLYLQMNSLRAEDTAVYYCAKLGELGWFDPWGQGTLVTVSS VL: DIQMTQSPSSLSASVGDRVTITCRASQGISSYLNWYQQKPGKAPKLLIYYASNLQNGVPSRFSGSGSGTDFTLTISSLQPEDFATYYCHFSMQYPLTFGGGTKVEIK
0.21	0.066	C1.2G-83 (antibody, human IgG4, V domains shown, HCDR3 wt (VH of C1.2G); also called antibody 83) VH: EVQLLESGGGLVQPGGSLRLSCAASGFTFSLYWMGWVRQAPGKGLEWVSSISSSGGVTPYADSVKGRFTISRDNSKNTLYLQMNSLRAEDTAVYYCAKLGELGWFDPWGQGTLVTVSS VL: DIQMTQSPSSLSASVGDRVTITCRASQGISSYLNWYQQKPGKAPKLLIYYASNLQNGVPSRFSGSGSGTDFTLTISSLQPEDFATYYCQQSWMYALFFGGGTKVEIK
